Source: article PMC3231237

Tests used:
Case12 [1] = assay: SEC-MALS; sensor at 4 mg/mL, Ca2+-saturated (5 mM CaCl2 added, 1 h); Superdex 200, 50 mM Tris-HCl, 300 mM NaCl, pH 7.4, 1 mM CaCl2; monomer to dimer
Case12 [2] = assay: SEC-MALS; sensor at 16 mg/mL, Ca2+-saturated (5 mM CaCl2 added, 1 h); Superdex 200, 50 mM Tris-HCl, 300 mM NaCl, pH 7.4, 1 mM CaCl2; monomer to dimer
Case16 [3] = assay: SEC-MALS; sensor at 4 mg/mL, Ca2+-saturated (5 mM CaCl2 added, 1 h); Superdex 200, 50 mM Tris-HCl, 300 mM NaCl, pH 7.4, 1 mM CaCl2; monomer to dimer
Case16 [4] = assay: SEC-MALS; sensor at 16 mg/mL, Ca2+-saturated (5 mM CaCl2 added, 1 h); Superdex 200, 50 mM Tris-HCl, 300 mM NaCl, pH 7.4, 1 mM CaCl2; monomer to dimer

percent dimer (Case12 [1]) [%]	percent dimer (Case12 [2]) [%]	stoichiometry N (Case12 [2])	percent dimer (Case16 [3]) [%]	percent dimer (Case16 [4]) [%]	stoichiometry N (Case16 [4])	Substance
3	22	2				Case12
			2	26	2	Case16
